The record followed here is PMC8155045.

This test addresses mCherry-YC (37 kDa isoform). The test can be described thus: FRET or BRET; FLIM-FRET (phasor analysis) in nuclei of live HeLa cells, eGFP donor and mCherry acceptor, all three NF-Y subunits transfected (third one untagged), 24 h after transfection, 37 degrees, 5% CO2. In general terms: Bioluminescence resonance energy transfer reports proximity on the nanometre scale.

B1: EGFP-YB (natural protein)
chain: MTMDGDSSTTDASQLGISADYIGGSHYVIQPHDDTEDSMNDHEDTNGSKESFREQDIYLPIANVARIMKNAIPQTGKIAKDAKECVQECVSEFISFITSEASERCHQEKRKTINGEDILFAMSTLGFDSYVEPLKLYLQKFREAMKGEKGIGGAVTATDGLSEELTEEAFTNQLPAGLITTDGQQQNVMVYTTSYQQISGVQQIQFS
Turning to B1, the FRET efficiency came to 16% and the fraction of FRET (% pixels) was 38.2 % pixels.
